As usually defined, the stoichiometry N is the number of molecules, sites or subunits per partner or assembly.

Assay [1] has as its target collagenase-cleaved xZP2-N2N3 (Xenopus). In words: SEC-MALS.
Assay [2] has the same target. In words: native MS.
In assay [3] the target is Xenopus egg exudate-cleaved xZP2-N2N3 (Xenopus). Briefly: SEC-MALS.
The target is the same in assay [4]. Briefly: native MS.

“And” between values parts separate entries of the source, which are not always exact repeats. Equal entries are not always repeated.

B1: collagenase-cleaved xZP2-N2N3 (domain or fragment)
chain 1: DEPGSSVVTCTKDSMTVRIPRTLSGFDDEIP
chain 2: VAAPSFWDLEVKFTGQTSLLGMSEARQRGYQFSSDPYYLTVQASYSAFGLNVFNLENQRLYVADLRLVSQFGSPRISIDTPMICARDSPSCNSTHATVLIPFFGGVLTGINVNSVNIQLSSYSLQQHGITLDSRNGYRLYIKRSTLKGDRNDVLVLTFIYYGKTVPMLISLVCSGGSN
modifications: not checked
On to B1, for which the stoichiometry N in assay [1] and in assay [2] was 4 throughout.

B2: Xenopus egg exudate-cleaved xZP2-N2N3 (domain or fragment)
chain 1: B1 chain 1
chain 2: B1 chain 2
modifications: not checked
Consider B2, for which the stoichiometry N in assay [3] was 4 and 2; in assay [4], 2 and 4.
